Test results published in the domain aggregation screens of Martell et al. (2025).

Experiment: soluble fraction after stress (log2 fold change); higher = more stays soluble; pooled small domains, quantitative proteomics
Settings: stress: 75 degC
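Also: 20 min heating vs room temperature control held 20 min.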

Sequence | soluble fraction (log2)
HMDSVAKSFLAEIERFLETAGLEPTTLGKQALGDPSFVFDLRKGRSPSTRTIGKLRVWMQQQNALS | -1.34
HMVLSTRERMSNILATLKGGHFVNFSDLFTPEEGRLGVVVTFLAMLELIKESLLDIVQHEVLGPIHVKARV | 0.00479
HMRYEESVTLGERLLNQSLVALKADNIDDALWERFLREEAGEKSRQEILSDIGLGKRLPVVVAKRLLAPS | -0.115
HMHKLTSRQEEILQFIKDYLSEIGYPPTRSEIAQKMGFRSTNAAEEHLRALARKGAIEILPGPSRGLRLP | -1.13
HMDAKIEYTMSDLIENRLINSDDASMRREKLSEILKIGYGNGKKTLHKLNSFGITREEFEEAMKEVNSH | 0.0731
HMPAFWILAVLAGGRRHGYQIMREAALSSEGLVTLKPTTLYAALERLERDGAIQQDGEEIVDGRVRRYYRI | 0.16
HMASDQGAGALREVSAFFEKHGRVPDPDAVDHDEMRLGSIWASIKSAPTDQMRLEDRFGLLD | 0.135
HMSKTQVKSVLDDIKGIGVVRRKALIKHFNDIEAIKAAQLAELKAVAGMDSKSAQSVYDFFHK | -0.453
HMEKDKGTILKEARIKKGLTQEQLANNINYTRQYISKWENNISLPKDIQTLKKISNLLSIPLKELLPEDYL | -0.442
HMNLESNQYVIDISDSQVINKDEFETILNQNKTKDIVIKSNNNVTFTFEKGSMIGAEGKDNYDFSSQVNY | -0.0852
HMIDNKIIRSLRQKRNMTLEELAKKANISVSYLSEIELGKKQPSLETINKLSQALNISREGLI | -0.0581
HMKAQVKSVLDEIPGVGPTRRKALMKHFTSIEEIKQAEFETLLEAEGMNRAAAQSVYDFFHN | -0.232
HMSRQREWIYDYIQSHPDRHMSVEEIYEGLKAENREVSVATVYRNLKILQDENRIASLMLESGKQVFDK | -0.384
HMNRNHVFDSNGPDLRLRGTAQQLFEKYLQLGRDATSGGDRVMAEGYFQHAEHYFRILNAMNQAAMQH | -1.15
HMDDMVLEIGPGIGTMTQYLAEAAGKVVAVEIDRNLLPILQETLADYDNVKVIHADVLSLDLEKLVQEE | -0.0859
HMNTLPTDELMKYGIINEDLSFSKKLNADDIQKFLQGYTIVADNDKNRATFQLTENNTKLKVIFLER | -0.44
HMRRNLSGEDTIVNRMAQWQYTQEQKNELHKMMDAGMPQEDILSVFYPEIKAEEMHRFLLAFQTAHNSG | -0.344
HMTQFSLTTEEINVLKKSYSEFTDSDKELFNKILEKYNKFKNESSNDIAFEAKILEKLQEIENFYE | -0.00344
HMTVSIDSLFDKFEDLQEQGLGDKTEEGQELRGLIRAFIEQEHLSVRITRSTSNQELLDMIEEAMQ | -1.25
HMSAAMTESVLDGIPGLGATRKAALLAHFGSVRKLRAATSEQVREVPGIGPRLAETILATLHEP | -0.52
HMHGSTAVVPQIKNMPYSEASVRLGANGLAIEINDSVYDRDMPPGTVIESWPKAGAVVKQGRQVYVTVTA | -0.425
HMIMEVDYGTFMKMTEENAIGRVQMDSTEIIFTDKENTQVYSTGIMYDPDLTQRLYDAGAVFA | -0.536
HMGPLPIDSRYFNNLVPYTGITHVNSVIPEAERHIGLTVVVKTGSTYSEYWYRTGVTNSSLELKT | -1.41
HMNTVSPAVSAQLRQELGGELNNANFQQLQQYLQAGQRDEAIVYLTSLGIESPRAVSIVNNAMDQIG | 0.494
HMGQHSAELKLHPQDLGQVTISMKVEDNQAQLQMVSGHGHVRAALEAALPQLRSQLADSGIQLTQSSIS | -0.198
HMLHIKKGDTVIVNAGESKGQQGKVLEVLVGKERAIVEGVNMVSKHTKPNAKNPQGGIVKKEAPIHISNLQ | 0.154

Sequence | soluble fraction (log2)
HMSAVNLNDDEKAVYKSIKSGIRSLDELSLRTGMKIYELMAITVSLEMKGLVTKSPDGTLDAT | -0.743
HMSALIGAHTLERIDSRDFEGVVMAWLPKRDGYDSLYKIYHIEDGDFEELDDREVQAAISLFIEGT | -0.381
HMRRADRLLQLIQILRRHRRPVTGDVMARELEVSLRTVYRDIATLTIEGVPIRGEAGVGYVLGEGY | -2.41
HMSPEWTPAEQDAIDKASEGEYGEALQRVLSGDYEPMDIPDALWGVQQVADKDTYSSIQKKIADIGN | 0.383
HMKPATSITFIPSERPDLVEQLSKITFDKKDSLYENYINLNWLTFEAISVYMREGDIIGFST | -0.148
HMSIQQEATGNRIRELLLNNGYTVKDIQEVMGFENPQAVYKWLSGKSLPNLDNLLILSKVLHTSIEDILV | -1.09
HMDDDDPDQEIAQYYEKLRAMNPDEETKQKLSDEINKLSKMMYSSQEAMVSRNYLDTVFSLPWHQF | -0.146
HMADGKWTLTDAGYTFTYSDGRKARGTWEDIDGEWYHFDRNGIMETGWKTVGNIRYHFNQDGSL | -1.52
HMDAYMGEAKDEETFAEEYLNDSGLLNEIPESVARYFDIVAYARDLLIGDFSLHDGHVFNMT | 0.358
HMPLQLPEPMAELARNGETARLAEALKQGLDIDLRDGKGNTLLMIAAYQGRAETVAMLLKAGA | -2.29
HMGRLTTKIVLYDRIENIVPERRKELVADIEKRIGVKVEVLEIGHVDFVRDAAWLKVSYYLAPGE | -2.21
HMKRWHVGDPIDALTAAGKVPSWSTIRQRFWKTIAALYPDIEQSERLQRGLAMLDEAGTSIELHHP | -1.03
HMEVPQVETEKVEAKLKEAEVLLVKVTDSSLKANATETLAGLRNNLTLQTMDNNGIMAEAEKLLALLRES | 0.0802
HMADLTEEQKTLFRLIRDLQPVSSKTLLENSGFTRSTQTRLLNGLIEKQIVIRTGNGPATRYSLR | -1.26
HMLAERKERDKAELKELILDAAKKILLKNGQEGLSIRKIATTVEYSPATIYLYFKDKDEILHELMEMG | 0.123
HMEGRHFRILYILLNNERVTAPELAEEFGVSVRTIYRDIDTMSAAGIPIYMQGGRKGGIYLLEGY | -1.11
HMTYYEGYYRKNQKGFGFVIVDGRDEDIYIDAKNMNGALNNDLVVVEELKGQNGKKTEGRVVKVLKKE | -0.17
HMDYSWNFFIGFSVVDKVAGNLGTIEEIDDKTINTLFLVKNDDEDLIIPATEDFVEKIDAKKRILYLNLPE | -2.51
HMNDFVTVPDLQGIFYSEAIKKIDKMGLKEGSIQFVNQDKFLPNTVLNQNPKEGTKVSQDSPINLIIS | -0.012
HMPRQREVPDVSGWTEQHAKVYLEALGYRVKVIYLEVSSFDKGLVQETSPAKGSKVEEGDTIDLRVSNQE | -2.64
HMSLGSSLFHARKKSGLTQEAVAEKLGVSRQTISKWETNETLPDIRQSKGLAMLYHMTLDELIE | -0.422
HMNAFEIYPNPASNLIRIDAEFTVAKIFSQTGNLIQTSTTKEIDVYNLANGIYFVKLDDSPSMVKFVIN | -0.795
HMRFTVSDKMDMLLKSLSAGQSMPFKSLFASASTKSEVIVTFLALLELMKLNQFVVWQDQILGEIEIERR | -0.751
HMKDSIQIPNVVGMTIKDAQSQYGKSFSIIEQNRTESTKPAGTILEQTPAGGDTVSKRDNIIIRVVVSLG | -1.45
HMVPVSIYAYNKIKTAILNNELMPGEKLVEASLAETLNMSRTPIREALRQLEQEGFVTYYPQKGSIVSH | -1.25
HMKHKYWEIKERIKKDILNEVYKKGESIPSERDLAGIYDVTRVTVQKAMAMLVQEGYIERIHGKGMFVLKN | -2.32

Sequence | soluble fraction (log2)
HMSMVGNIEKILVTGESKKSSELLAGRTENNRVVNFTGEKVLIGSMVNVRIEEVFPNSLGGSYLPS | -0.133
HMGQTYTITINPTPADAKVIIDGVATNSVEAIDGRTLIWSVSKPGYLTKSGNYTVTGKNETLNIVLKEDPD | 0.163
HMLPVDALFAQHPALIVTLGQTEKLKHGAAIRDWHFADGTYRVYSETGEFLLLGTVKGQILTTVKSFFE | -2.24
HMASINRIENKNGKVVYRIIVSLGYDKQGKKLKKTITYNVNQTATKKQQENEALKYALDIEDKIKNGHD | -1.99
HMSNEDAYIKLRNGFLATLSEADLLLFTLREEGKTQKEIADQLGYKTHSAVSKRLQTMRGQFEGYLKTQ | -1.03
HMSAPRRGETTAASLNLRAGPATDADILAQLPERTPLRVLQEDGEWLRVETHGNEGFVHRQFVAIPGDEP | 0.0338
HMLSAPMPGTVLEVHVKEGQRVREGQTLVVMEAMKMEHRVQAPRAGVVTKLHYSEGDRVDVGAILVEIG | -1.34
HMAPKVHLLKVPVDKIREIIGTGGKVIRQITEETGAKIDISDDGSVKVSSPDQSSIDAATTWITGIIAE | -0.0092
HMLNPLLLPFVEAEDFQVKLEILAAMEGKVGEEDLDILYEALDLPKMTGNIEEQIHSIKQYIEMRK | -1.18
HMITTEEVLNRIRKKVDHPATIRELQKALSIADDDRHRFRRRIRTLVASGALVRIRGNRYGLPSK | -0.213
HMDSAQLARWAATILAQNGRKITPSTMNLFLERVGDDMENIRMELEKLISYTMGSEVVTAEDVKVITTVQ | -1.01
HMFDEVKDAARRLAALLDQAGGTLTLNDKSAPEEVAALTGMSKKVFKRALGHLMSRSEVVVADGRITKKD | -0.709
HMLFYSDLVRLISFAEATLGKNEFETWYMSHHQGMKYTEIAIALGISVRTVEDRIARTKNHFRKI | -0.68
HMNYKLESYLKKVDDQLNFIPVSDKADILSELKNTFYERLLNGQTEEEILDEMESPRELALSYMSES | -0.00676
HMLNMSVYDKQLLRAVENNPFISQRELARELHWNVDRVKYYMKKWKDKGGLRHVGSSHKGYWEVLVRIEEK | -0.891
HMVSEDELLARIALLPYPQAKILLEERLSHDPANAKVRQLYLELAKKSGDHTEVTRHNSLLY | -0.347
HMERTVEVVDINDVFSQFLRLYSRERAAGLLSVFKRVEHGLSWQGNPVLLERILSNVFENAIKYAA | 0.149
HMKPMNNNDILRRLRYTFDLSDDKMMETFALGGYEANRSEISDWLKKDDHPEQKSLYDKSLSHFLNGFIV | -0.178
HMNEKFNVYPIPVYNNLNITGLSKPVTYLISSIDGKTIKNGVFQESIDVSDLKSGLYFLQVETKDPVKFIK | -0.991
HMSHGFFTLQSDDLNLLRTVLEGHSSIGDIKIEGIQLVAYLKEPLNGAELNKILFEKGINLSYLVHRK | -2.9
HMNVDSIPGKSGIVTQGIDNLKAMGRVTVNGMEWTARSKDGSLIEEGKVVRVYGVEGVKLIVEED | 0.0811
HMNTLRFPEGTPEKDRMSIILASYNSGIGHVNDARRLARLNGEDPNSWEVVARYLQLKAQPEYYESEAVK | -0.204
HMDEYILTLDEVKELLKSKDYDDLKNVLKWSNKFQKDTIIQTAISEKVSDANVINIIKEITGQDITSLIV | -0.0278
HMGADPTTWPEIDAFVGRVAVTATGLFPSGQVEIDGRRFEARLAFGVAEPGARVVVRRRTDFGLLVEKETR | -2.38
